From patent US20120308522A1

B1: recombinant placenta growth factor (P1GF) (ligand, UniProt P49763-2 21-149, looked up)
chain: AVPPQQWALSAGNGSSEVEVVPFQEVWGRSYCRALERLVDVVSEYPSEVEHMFSPSCVSLLRCTGCCGDENLHCVPVETANVTMQLLKIRSGDRPSYVELTFSQHVRCECRPLREKMKPERCGDAVPRR

Key:
[1] = target: high-affinity receptors for VEGF in HUVECs; test: cell-based or functional assay
[2] = target: Flt-1 VEGF receptor (human (on HUVEC)) (UniProt P17948); test: cell-based or functional assay
UniProt P17948, sequence (P17948 27-1338): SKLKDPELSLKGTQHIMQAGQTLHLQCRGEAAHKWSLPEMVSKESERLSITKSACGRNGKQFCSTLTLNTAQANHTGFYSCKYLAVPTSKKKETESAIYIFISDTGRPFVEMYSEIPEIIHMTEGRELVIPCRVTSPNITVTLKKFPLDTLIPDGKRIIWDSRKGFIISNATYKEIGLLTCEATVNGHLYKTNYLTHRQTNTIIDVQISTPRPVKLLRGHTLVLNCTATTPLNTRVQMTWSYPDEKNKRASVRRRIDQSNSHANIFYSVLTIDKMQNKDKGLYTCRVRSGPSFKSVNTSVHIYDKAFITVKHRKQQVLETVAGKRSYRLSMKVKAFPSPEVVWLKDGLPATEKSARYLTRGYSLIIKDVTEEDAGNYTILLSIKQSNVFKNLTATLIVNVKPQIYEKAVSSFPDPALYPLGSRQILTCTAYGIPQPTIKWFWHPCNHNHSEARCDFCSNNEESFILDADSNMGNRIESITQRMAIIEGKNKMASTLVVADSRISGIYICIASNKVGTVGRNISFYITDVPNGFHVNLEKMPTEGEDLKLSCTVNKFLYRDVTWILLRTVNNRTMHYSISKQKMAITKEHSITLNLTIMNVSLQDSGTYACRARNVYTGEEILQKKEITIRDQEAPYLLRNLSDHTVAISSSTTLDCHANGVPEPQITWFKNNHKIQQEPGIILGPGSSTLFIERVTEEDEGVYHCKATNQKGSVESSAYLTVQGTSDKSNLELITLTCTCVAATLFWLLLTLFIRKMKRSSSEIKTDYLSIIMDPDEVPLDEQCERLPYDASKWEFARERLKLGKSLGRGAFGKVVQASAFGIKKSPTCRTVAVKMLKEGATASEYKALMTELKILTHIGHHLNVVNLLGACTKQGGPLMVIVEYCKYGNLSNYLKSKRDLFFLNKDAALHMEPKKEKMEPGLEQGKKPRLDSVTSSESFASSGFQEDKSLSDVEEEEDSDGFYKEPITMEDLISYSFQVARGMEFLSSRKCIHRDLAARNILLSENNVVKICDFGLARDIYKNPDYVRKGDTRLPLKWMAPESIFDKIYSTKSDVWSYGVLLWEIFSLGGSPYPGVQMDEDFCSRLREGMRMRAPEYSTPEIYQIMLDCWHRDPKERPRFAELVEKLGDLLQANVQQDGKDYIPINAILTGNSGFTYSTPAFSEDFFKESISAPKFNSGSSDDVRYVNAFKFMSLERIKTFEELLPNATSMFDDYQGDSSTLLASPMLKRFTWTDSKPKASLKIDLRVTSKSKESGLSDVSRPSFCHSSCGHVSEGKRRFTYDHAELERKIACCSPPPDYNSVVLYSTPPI

Row | Molecule | arachidonic acid release from prelabelled HUVEC, concentration of maximum effect [1] | arachidonic acid release from prelabelled HUVEC, half-maximum effect [1] | mean increase in release of labelled arachidonic acid above basal level [1] | mean fold increase in 6-keto PGF1a above control, 60 min with 60 ng/ml P1GF [2]
1 | recombinant human VEGF (vascular endothelial growth factor) (from UniProt P15692 27-191) (ligand) | 10 to 20 ng/mL | 2.5 to 5 ng/mL | 1.6 fold | 
2 | B1 |  |  |  | 1.3 fold
